Data on 7 molecules can be found in patent US20230358760, “APTAMERS THAT TARGET CXCL9” (RHEINISCHE FRIEDRICH-WILHELMS-UNIVERSITÄt BONN, published 2023).

A word on the Kd: it is the equilibrium constant for the complex coming apart. Lower therefore signals a tighter complex.

For one data set, the target named is T1, CXCL11 (Homo sapiens) (UniProt O14625).
T1 sequence: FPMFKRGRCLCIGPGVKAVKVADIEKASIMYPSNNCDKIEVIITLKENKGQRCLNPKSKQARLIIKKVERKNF
The data set is described as follows: ELONA. The note with it: n=2.

The target in data set [1] is T2, CXCL9 (MIG) (Homo sapiens) (UniProt Q07325).
T2 sequence: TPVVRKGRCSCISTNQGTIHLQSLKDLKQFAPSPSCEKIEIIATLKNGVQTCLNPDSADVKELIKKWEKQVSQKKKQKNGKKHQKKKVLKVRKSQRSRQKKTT
The data set is described as follows: ELONA. The note with it: n=2.

In data set [2] the target is T3, CXCL9 (MIG) (Homo sapiens, UniProt Q07325 Q07325:23-125).
T3 sequence: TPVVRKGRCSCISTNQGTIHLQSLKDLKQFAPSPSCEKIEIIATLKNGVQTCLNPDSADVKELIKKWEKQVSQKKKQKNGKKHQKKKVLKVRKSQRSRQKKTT
Put plainly: flow; scrambled non-binding control. The note with it: tags: Origene; immobilised on magnetic beads for flow cytometry; label: 5' Cy5. The method, then:
The binding of indole-modified aptamer of SEQ ID NO: 5 (I29 In), unmodified aptamer of SEQ ID NO: 6 (G123 DNA), and indole-modified aptamer of SEQ ID NO: 4 (G123 In) to pro-inflammatory chemokine CXCL9 was determined in competition assay. 100 nM Cy-5 labelled DNA was incubated simultaneous with 1 μM unlabelled DNA and thus competed for binding. After incubation the remaining Cy5 labelled DNA on CXCL9-magnetic beads was analysed with flow cytometry as described above. As control, Cy5-labeled DNA without competitor was analysed and was used to normalize data.
Binding of Cy5 labelled scrambled sequence is used as non-binding control. (n=2, mean±SD).
(In flow cytometry, cells or beads pass a laser one at a time.)

Another data set deals with T4, CXCL11 (Homo sapiens, UniProt O14625 O14625:22-94).
T4 sequence: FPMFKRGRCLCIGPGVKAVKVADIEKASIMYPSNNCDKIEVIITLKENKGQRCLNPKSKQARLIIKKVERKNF
The data set is described as follows: ELONA; n=2. The note with it: tags: Cell guidance system; label: 5' biotin or Cy5; G4. The method, then: (§1) 20 μl of 1 μg/ml protein in bicarbonate/carbonate buffer pH 9.6 was coated overnight at 4° C. on 96 well half area plates (Greiner Bio). After washing three times with 100 μL WB1 (PBS+0.05% Tween 20), wells were blocked with 1% BSA in PBS for 2 h at RT with slight agitation. […] Wells were washed once with 100 μL WB2 (138 mM NaCl, 5 mM KCl, 1.5 mM KH₂PO₄, 8.1 mM Na₂HPO₄, 170 mM urea, 7 mM ammonium acetate, 1 mM MgCl₂, 1 mM CaCl₂), pH 6.5).
(§2) DNA was diluted to respective concentration in SB1 and 20 μL is transferred onto the wells in duplicates (protein and BSA wells). After incubation of 30 min at RT and slight agitation, the wells were washed two times with 100 μL WB1 and are incubated with 20 μL of streptavidin-horseradish peroxidase (SA-HRP) solution (1:1000 in PBS, GE Healtcare). After 30 min incubation at RT the wells were washed again twice with 100 μL WB1. Finally, the complex was incubated with 1-Step ABTS (ThermoFisher) for 15-40 min at RT, slight agitation. Absorbance at 405 nm was read out with a Tecan Nanoquant plate reader. Binding of DNA to BSA background was subtracted from binding of DNA to protein sample.

Data set [3] addresses T3, CXCL9 (MIG). Put plainly: ELONA; n=2. To be noted: tags: Origene; immobilised on magnetic beads for flow cytometry; label: 5' biotin or Cy5; G4. The method, then: as §1
as §2, with “Binding of DNA to BSA background was subtracted from binding of DNA to protein sample.” left out
In parallel, the influence of indole (In) modification and azide without modification (E) on the affinity of aptamer SEQ ID NO: 4 (G123) was determined using ELONA and compared to the affinity of unmodified DNA (DNA). […] In the table, “+” represents successful binding, while “−” means no detection of binding, “n.d.” denotes not determined.

The target in data set [4] is sCD25 (soluble interleukin-2 receptor) (Homo sapiens, UniProt P01589 P01589:22-240). Put plainly: ELONA; DNA at 2x KD. The note with it: tags: Antikorper online; label: 5' biotin or Cy5; G4. The protocol: as §1, §2
Chain of sCD25 (soluble interleukin-2 receptor) (P01589 22-240, one chain of several): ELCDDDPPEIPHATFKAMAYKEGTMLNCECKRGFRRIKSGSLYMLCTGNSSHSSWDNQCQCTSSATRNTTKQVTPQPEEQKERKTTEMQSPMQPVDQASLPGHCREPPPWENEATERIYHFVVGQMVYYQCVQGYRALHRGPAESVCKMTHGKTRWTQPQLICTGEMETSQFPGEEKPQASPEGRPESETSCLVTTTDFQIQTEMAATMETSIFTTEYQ
(§3) Binding of aptamers of SEQ ID NO: 4 (G123) and SEQ ID NO: 5 (I29) to different proteins was determined using ELONA. […] The pro-inflammatory chemokines CXCL9, CXCL10, CXCL11, and CXCL1 were used, as well as soluble interleukin-2 receptor (sCD25), C-reactive protein (CRP), C—C motif chemokine ligand 17 (CCL17), C—C motif chemokine ligand 22 (CCL22), C—C motif chemokine ligand 3(CCL3) and human serum albumin (HAS).

In the next data set the target is CXCL1 (Homo sapiens, UniProt P09341 P09341:35-107). The data set is described as follows: ELONA; DNA at 2x KD. The note with it: tags: Cell guidance system; label: 5' biotin or Cy5; G4. The protocol: as §1, §2, §3
Chain of CXCL1 (P09341 35-107, one chain of several): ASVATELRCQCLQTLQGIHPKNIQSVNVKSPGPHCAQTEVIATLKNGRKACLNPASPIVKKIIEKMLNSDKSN
Data set [5] addresses HSA (human serum albumin) (Homo sapiens, UniProt P02768 P02768:25-609). The data set is described as follows: ELONA; DNA at 2x KD. To be noted: tags: Sigma-Aldrich; label: 5' biotin or Cy5; G4. The protocol:
as §1, §2, §3

The next data set concerns the target T5, CCL22 (Homo sapiens, UniProt O00626 O00626:25-93).
T5 sequence: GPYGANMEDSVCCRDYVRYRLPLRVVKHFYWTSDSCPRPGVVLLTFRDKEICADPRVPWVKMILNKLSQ
Put plainly: ELONA; DNA at 2x KD. The note with it: tags: BioLegend; label: 5' biotin or Cy5; G4. The method, then: as §1, §2, §3

The target in another data set is CCL3 (Homo sapiens, UniProt P10147 P10147:24-92). Put plainly: ELONA; DNA at 2x KD. The note with it: tags: Peprotech; label: 5' biotin or Cy5; G4. The protocol:
as §1, §2, §3

A further data set has as its target CCL17 (Homo sapiens, UniProt Q92583 Q92583:24-94). The data set is described as follows: ELONA; DNA at 2x KD. To be noted: tags: BioLegend; label: 5' biotin or Cy5; G4. The protocol:
as §1, §2, §3

The next data set deals with CXCL10 (Homo sapiens, UniProt P02778 P02778:22-98). The data set is described as follows: ELONA; DNA at 2x KD. To be noted: tags: Cell guidance system; label: 5' biotin or Cy5; G4. The method, then: as §1, §2, §3
Chain of CXCL10 (P02778 22-98, one chain of several): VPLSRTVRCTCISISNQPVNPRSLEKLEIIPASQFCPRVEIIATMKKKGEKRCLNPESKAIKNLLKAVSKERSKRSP
Another data set addresses T6, CRP (C-reactive protein) (Homo sapiens, UniProt P02741 P02741:19-224).
T6 sequence: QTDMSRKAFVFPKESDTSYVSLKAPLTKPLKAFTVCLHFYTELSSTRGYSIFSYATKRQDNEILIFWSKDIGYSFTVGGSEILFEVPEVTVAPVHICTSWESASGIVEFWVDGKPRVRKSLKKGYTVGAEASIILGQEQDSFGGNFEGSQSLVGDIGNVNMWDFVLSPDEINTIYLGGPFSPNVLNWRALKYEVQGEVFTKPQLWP
The data set is described as follows: ELONA; DNA at 2x KD. To be noted: tags: BioRad; chain copies: 5; label: 5' biotin or Cy5; G4. The method, then: as §1, §2, §3

Setting [6] is: indole-clicked EdU at all N (28,44,47,49,50) [28,44,47,49,50 (indole-clicked EdU)].
[7] abbreviates: indole-clicked EdU at all N [31,45,49,53 (indole-clicked EdU)].

Chain of CCL3 (P10147 24-92, one chain of several): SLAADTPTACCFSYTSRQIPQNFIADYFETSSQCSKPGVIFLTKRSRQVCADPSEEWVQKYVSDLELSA
Chain of HSA (human serum albumin) (P02768 25-609, one chain of several): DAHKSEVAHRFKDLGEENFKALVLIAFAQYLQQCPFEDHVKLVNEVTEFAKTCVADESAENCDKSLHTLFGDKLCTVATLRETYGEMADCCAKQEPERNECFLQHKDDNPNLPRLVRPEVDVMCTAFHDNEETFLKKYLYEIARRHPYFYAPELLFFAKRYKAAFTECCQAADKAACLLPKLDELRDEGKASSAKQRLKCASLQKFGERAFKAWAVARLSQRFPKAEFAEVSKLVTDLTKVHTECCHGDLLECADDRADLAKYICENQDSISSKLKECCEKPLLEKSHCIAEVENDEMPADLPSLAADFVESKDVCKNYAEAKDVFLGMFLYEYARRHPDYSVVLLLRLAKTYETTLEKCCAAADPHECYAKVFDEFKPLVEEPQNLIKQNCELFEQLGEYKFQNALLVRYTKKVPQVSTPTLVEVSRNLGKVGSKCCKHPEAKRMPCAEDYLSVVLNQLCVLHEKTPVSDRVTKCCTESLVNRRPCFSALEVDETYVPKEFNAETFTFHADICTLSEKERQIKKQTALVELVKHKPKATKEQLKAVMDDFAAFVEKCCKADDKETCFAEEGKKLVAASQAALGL
Chain of CCL17 (Q92583 24-94, one chain of several): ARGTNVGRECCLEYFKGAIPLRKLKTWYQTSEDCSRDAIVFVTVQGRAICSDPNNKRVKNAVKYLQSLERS

Take “CACGACGCAAGGGACCACAGGAGAGACTCACGGGCGGGCGACCTACTGTTCAGCCCAGACCGACAGCACGACACCGCAGAGGCA [I29 In]”: the values for the Kd (with CXCL11 (Homo sapiens) (setting [6]); in data set [1] (setting [6])) were 17 nM and 12 nM, respectively.
“CACGACGCAAGGGACCACAGGAGAGACTCACGGGCGGGCGACCTACTGTTCAGCCCAGACCGACAGCACGACACCGCAGAGGCA [I29 Naph]” displayed a dissociation constant (Kd) in [1] (naphthalene-clicked EdU at all N [28,44,47,49,50 (naphthalene-clicked EdU)]) of 21 nM.
As to “CACGACGCAAGGGACCACAGGGAGGGAGGGTGGGCAAAGGGCCCTAAGTCCGTAACAAAAACACAGCACGACACCGCAGAGGCA [G123 In]”, the dissociation constant (Kd) turned out to be 73 nM in the data set with CXCL11 (Homo sapiens) (setting [7]) and 39 nM in data set [1] (setting [7]).
As for “CACGACGCAAGGGACCACAGGAGAGACTCACGGGCGGGCGACCTACTGTTCAGCCCAGACCGACAGCACGACACCGCAGAGGCA [I29 BnFu]”, the dissociation constant Kd in [1] (benzofurane-clicked EdU at all N [28,44,47,49,50 (benzofurane-clicked EdU)]) is 17 nM.
Molecule “CACGACGCAAGGGACCACAGGAGAGACTCACGGGCGGGCGACCTACTGTTCAGCCCAGACCGACAGCACGACACCGCAGAGGCA [I29 Phe]” came in with a Kd in [1] (phenol-clicked EdU at all N [28,44,47,49,50 (phenol-clicked EdU)]) of 177 nM.

B1: G123.sc (ssDNA)
DNA: CACGACGCAAGGGACCACAGGAGGAGAGTAGGCGATACACGACGTAGCGCAGATAGGACCAAGCAGCACGACACCGCAGAGGCA
modifications: N = T or EdU [29,36,45,54 (T or EdU)]
B1: the binding result with CXCL9 (MIG) [2] is reported as “no binding”.

B2: G123 DNA (ssDNA)
DNA: CACGACGCAAGGGACCACAGGGAGGGAGGGTGGGCAAAGGGCCCTAAGTCCGTAACAAAAACACAGCACGACACCGCAGAGGCA
Regarding B2, the Kd amounted to 249 nM in the data set with CXCL11 and 92 nM with CXCL9 (MIG) [3]. The binding result (in data set [4]; with CXCL1; in data set [5]; with CCL22; with CCL3; in the data set with CCL17) was “no binding” in each case. In addition, the binding result with CXCL10 and in the data set with CRP (C-reactive protein) was “no binding” throughout.
